Source: patent publication US5792457A, “Antibody recognizing endothelial cell ligand for leukocyte CR3” (priority 1995, dated 1998)

Test: Overlay on thin-layer chromatography plates containing glycolipids
Type: binding
Text: 2) The DNA sequence from nucleotide position 3674 to 4088 (bounded by XhoI sites) which corresponds to the CRD was amplified by the polymerase chain reaction and ligated into one of the pET expression vectors (Rosenberg et al. (1987), Gene 56, 125-135). Expression of the polypeptide in E. coli utilized the T7 RNA polymerase promoter system (Tabor, S. & Richardson, C.C. (1985), Proc. Natl. Acad. Sci. U.S.A. 82). [^35 S] […] Cell lysates containing the expressed protein were overlaid on thin-layer chromatography plates containing glycolipid standards and the binding pattern was compared to that of FHA.

B1: CRD protein: expressed polypeptide of FHA carbohydrate recognition domain, residues 1141-1279, 18kD (protein, UniProt P12255 1141-1279, looked up, fragment)
chain: LEHSTIESKISQSVLAAKGDKGKPAVSVKVAKKLFLNGTLRAVNDNNETMSGRQIDVVDGRPQITDAVTGEARKDESVVSDAALVADGGPIVVEAGELVSHAGGIGNGRNKENGASVTVRTTGNLVNKGYISAGKQGVL
binding to lactosylceramides (in words): bound to these carbohydrates in a pattern similar to FHA, especially in the ability to bind to lactosylceramides
